According to patent US20220073643A1 (NANJING GENSCRIPT BIOTECH, published 2022):
Numbering of substitutions follows the chain as printed. Where “and” joins values, the source holds several entries; their conditions need not be identical. Equal values may be shown once.

B1: chimeric 419B5G9 (antibody, human IgG1, kappa, V domains shown)
VH: DVQLVESGGGLVQPGGSRKLSCAASGFTFSTFGMHWVRQAPEKGLEWVAYISGGSTTIFYADTVKGRFTISRDNPKNTLFLQMTSVRSEDTAMYYCARFYYGNSFAYWGPGTLVTVST
VL: DIVMTQSPSSLTVTAGEKVTMSCKSSQSLLNSGNQKNYLTWYQQKPGQPPKMLIYWASTRESGVPDRFTGSGSGTDFTLTISSVQAEDLAVYYCQNAYSYPLTFGAGTKLELKR
notes: chimeric, human IgG1/kappa constant regions
B2: chimeric 407D8G1 (antibody, human IgG1, kappa, V domains shown)
VH: DVQLVESGGGLVQPGGSRKLSCAASGFTFSGFGMHWIRQTPEKGLEWVAYISSGSRPIYYADTVQGRFTISRDNPKNTLFLQMTSLRSEDTAMYFCARFYYGNSFDHWGQGTLVTVSS
VL: B1 VL with S10F, M52L, V91L, Y100F
notes: as for B1
B3: chimeric 412B6E4 (antibody, human IgG1, kappa, V domains shown)
VH: DVQLVESGGGLVQPGGSRKLSCAASGFTFSSFGVHWVRQAPEKGLEWVAYISSGSSTIYYAHSVKGRFTISRDNPKNTLFLQMTSLGSEDTATYYCARFYYGNSFAYWGQGTLVTVSA
VL: B1 VL with S99T, K109R
notes: chimeric, human IgG1/kappa constant regions; also called 412B6E4-Chimeric
B4: chimeric 410H6H3 (antibody, human IgG1, kappa, V domains shown)
VH: DVLLVESGGGLVQPGGSRKLSCAASGFTFSSSGMHWVRQAPEKGLEWVAYISSGSNTIYYADTLKGRFTISRDNPKNTLFLQMTSLRSEDTAMYYCARIYYGNSFVYWGQGTLVTVSA
VL: B1 VL with T20I, T69R, A97N, S99Y, A106T, E111A
notes: chimeric, human IgG1/kappa constant regions; also called 410H6H3-Chimeric
B5: chimeric 418G6A5 (antibody, human IgG1, kappa, V domains shown)
VH: B4 VH with L3Q, A23V, S32F, N56S, T57P, I58M, L64V, Y95F, V106A
VL: B1 VL with M52L
notes: as for B1
B6: chimeric 418D2F9 (antibody, human IgG1, kappa, V domains shown)
VH: B4 VH with L3Q, S32F, S52N, S53T, N56S, L64V
VL: B1 VL with M52L, A97D
notes: as for B1
B7: chimeric 429H6C5 (antibody, human IgG1, kappa, V domains shown)
VH: B3 VH with V34M, G44E, S63T, Q82R, T93M, A97V, A106V, Y107N
VL: B1 VL with V13A, T69A, S99I, K109R
notes: as for B1
B8: chimeric 393C2C5 (antibody, human IgG1, kappa, V domains shown)
VH: B3 VH with V34M, T57P, H62D, S63T, G87R, T93M, Y95F, R98T
VL: B1 VL with S28T, P46S, M52L, L102V, A106S, L110V
notes: chimeric, human IgG1/kappa constant regions; also called 393C2C5A
B9: IMAB362 analog (Claudiximab, Zolbetuximab) (antibody, V domains shown)
VH: QVQLQQPGAELVRPGASVKLSCKASGYTFTSYWINWVKQRPGQGLEWIGNIYPSDSYTNYNQKFKDKATLTVDKSSSTAYMQLSSPTSEDSAVYYCTRSWRGNSFDYWGQGTTLTVSS
VL: DIVMTQSPSSLTVTAGEKVTMSCKSSQSLLNSGNQKNYLTWYQQKPGQPPKLLIYWASTRESGVPDRFTGSGSGTDFTLTISSVQAEDLAVYYCQNDYSYPFTFGSGTKLEIK
notes: in-house prepared analog; chimeric IgG1
B10: chimeric 417A6F11 (antibody, human IgG1, kappa, V domains shown)
VH: EVQLQQSGPELVKPGASMKISCKASGYSFTGYTMNWVKQSHGKNLEWIGLINPYNGGTSYNQKFKGKATLTVDKSSSTAYMELLSLTSEDSAVYYCARGDYWGQGTTLTVSS
VL: DIVMTQSPSSLTVTAGEKVTMSCKSSQSLLNSGNQKNYLTWYQQKPGQPPKLLIYWASTRESGVPDRFTGSGSGTDFTLTISSVQAEDLAVYYCQNDYSYPTFGAGTKLELKR
notes: as for B1
B11: chimeric 237D2A4 (antibody, human IgG1, kappa, V domains shown)
VH: QVQLKESGPGLVAPSQSLSITCTVSGFSLTSYGVSWVRQPPGKGLEWLGVIWGDGSTNYHSTLISRLRISKDKSKSQVFLKLNSLQTDDTATYYCAKAGRGNALDYWGQGTSVTVSS
VL: B1 VL with M52L, A97D, Y100F
notes: chimeric, human IgG1/kappa constant regions; also called 237D2A4-Chimeric
B12: chimeric 370E2B12C3 (antibody, human IgG1, kappa, V domains shown)
VH: QVQLKESGPGLVAPSQSLSITCTVSGFSLTTYGVHWVRQPPGKGLEWLGVIWAGGSTNYNSALMSRVSINKDNSKSQVFIKMNSLQADDTALYYCARAAYYGNGLDYWGQGTTLTVSS
VL: B1 VL with S28T, M52L, R60G, Y93F, S99F, L102F, A106G, L112I
notes: chimeric, human IgG1/kappa constant regions; also called 370E2B12C3-chimeric
B13: chimeric 232C5E3 (antibody, human IgG1, kappa, V domains shown)
VH: QAYLQQSGAELVRSGASVKMSCKASGYTFTSHNIHWIKQTPGKGLEWIGYIYPGNGGTNYNQKFKAKATLTADTSSSTAYMQISSLTSEDSAVYFCARDYYGNSFAYWGQGTLVTVSA
VL: B1 VL with V3M, V13E, T20S, M52L, T69S, A97G, S99R, Y100F, L102F
notes: chimeric, human IgG1/kappa constant regions; also called 232C5E3-Chimeric
B14: chimeric 246B5F2 (antibody, human IgG1, kappa, V domains shown)
VH: EVMLVESGGGLMKPGGSLKLSCAASEFTFSNYAMSWVRQTPEKRLEWVATISSGRSSTYYPDSVKGRFTISRDNAKNTLYLQMSSLRSEDTAMYYCAGLGRGNAMEYWGQGTSVTVSS
VL: B1 VL with M21L, M52L, T78I, S82N, L102F, A106S, L112I
notes: chimeric, human IgG1/kappa constant regions; also called 246B5F2-Chimeric

Molecular target: T1, human Claudin18.2 (human)
T1 construct: also called CLDN18.2
Assay: FACS, Claudin18.2-HEK293 cells
Method: (§1) The binding of chimeric antibodies to Claudin18.2 expressed on HEK293 cells was determine by FACS analysis. Briefly, HEK293 cells expressing human Claudin18.2 as prepared in the foregoing Example were harvested and incubated with anti-Claudin18.2 mAbs at 4° C. for 40 min, followed by fluorophore (iFluor 647)-labeled goat […] IgG (H+L) secondary antibodies at 4° C. for 0.5 hour. The samples were then analyzed by flow cytometry.

Binder | EC50 [nM]
B1 | 1.23
B2 | 0.533
B3 | 0.677
B4 | 0.778
B5 | 0.595
B6 | 0.65
B7 | 0.908
B8 | 0.687
B9 | 0.517
B10 | 2.48

Molecular target: T1, human Claudin18.2
Assay: FACS, Claudin18.2-HEK293 cells
Remark: another data set of the same source

Binder | EC50 [µg/mL] | Span
B11 | 0.0923 | 14800
B12 | 0.772 | 4570
B3 | 0.555 | 87900
B13 | 0.317 | 69700
B4 | 0.843 | 79100
B14 | 0.192 | 12400

Molecular target: T1, human Claudin18.2
Assay: cell-based or functional assay

Binder | ADCC % Relative activity [%] | ADCC EC50 [µg/mL]
B11 | 169 | 0.0214
B12 | 75.7 | 0.0335
B1 | 332 | 0.00794
B3 | 535 | 0.00494
B13 | 452 | 0.00782
B4 | 677 | 0.0039
B14 | 157 | 0.023
B6 | 25.7 | 0.103
B7 | 144 | 0.0184
B8 | 318 | 0.0111

Molecular target: T1, human Claudin18.2
Assay: cell-based or functional assay
Remark: another data set of the same source

Binder | CDC % Relative activity [%] | CDC EC50
B11 | 1170 | 0.231 µg/mL
B12 | 1200 | 0.192 µg/mL
B1 | 2000 | 0.106 µg/mL
B3 | 2020 | 0.105 µg/mL
B13 | 2130 | 0.0994 µg/mL
B4 | 2810 | 0.0756 µg/mL
B14 | 985 | 0.274 µg/mL
B6 | 3.04 | 69.9 µg/mL
B7 | 2430 | 0.0874 µg/mL
B8 | 2030 | 0.105 µg/mL
B9 |  | 2.7 µg/mL and 2.3 µg/mL and 2.12 µg/mL

Molecular target: T1, human Claudin18.2
Assay: FACS, Claudin18.2-HEK293 cells
Remark: another data set of the same source
Method: as §1

Binder | EC50 [nM]
B11 | 0.596
B12 | 0.792
B13 | 1.05
B14 | 1.24
B9 | 0.596
